Test results taken from patent US20110098224A1, “PROTEIN KINASE C PEPTIDE MODULATORS OF ANGIOGENESIS” (priority 2005, published 2011).

Tests used:
new vessel growth = settings: rats, given systemically; cited from earlier work
[1] = test system: primary rat retinal pigment epithelial cells (RPEs); settings: cited from earlier work
[2] = Stability testing of peptide variants (scored); format: physicochemical
Description: Stability, Miles Assay activity and corneal angiogenesis activities of a number of the peptides were investigated, and scored.

[3] = test system: VEGF-induced vascular permeability; test: Miles assay (Evans Blue dye extravasation after intradermal VEGF with PKC modulator); format: in vivo; settings: increasing VEGF doses
Protocol: In this study animals were injected intravenously with Evans Blue Dye. Animals were administered VEGF in increasing doses with a PKC modulator intradermally. […] The spots were removed, the dye extracted and quantities were measured spectrophotometrically.
A parent compound, βIV5-3 (SEQ ID NO:6) and a peptide variant—a linear version of the peptide, linear βI, having the sequence […] (SEQ ID NO:18)—were tested in the Miles assay.
The Miles assay was similarly performed with a βIPKC (βIV5-3 (SEQ ID NO:6)) inhibitor, a βIIPKC (βIIV5-3 (SEQ ID NO:8)) inhibitor, a classical ((β-, α-, γPKC) PKC inhibitor (βC2-4 (SEQ ID NO:10), and the scrambled control 1 peptide from Example 2 (SEQ ID NO:12) conjugated to TAT (SEQ ID NO:5).

[4] = Topical distribution of radiolabeled TAT peptide after instillation to rabbit eyes; format: in vivo; settings: rabbit eye
Protocol: Radiolabeled TAT peptide [^14C]-YGXaaRKKRRQRRR (SEQ ID NO:19) (10 μCi) was applied in 5 instillations to each eye (50 μCi total—4 rabbits, 2 eyes each, n=8 eyes, 3 mg total applied to each eye). Each application was 1 hour apart, animals sacrificed 15 minutes after last application. Tissue samples were taken and assayed to determine topical distribution.

## Cn1cc(C2=C(c3cn(C4CCN(Cc5ccccn5)CC4)c4ccccc34)C(=O)NC2=O)c2ccccc21 [LY317615]
New vessel growth
  new vessel growth: prevent new vessel growth

## CCCCCCCCCCCCCC(=O)O[C@@H]1[C@@H](C)[C@@]2(O)[C@@H](C=C(CO)C[C@]3(O)C(=O)C(C)=C[C@@H]23)[C@@H]2C(C)(C)[C@]12OC(C)=O [PMA]
[1]; exposure for 24 hours
  PKC-delta level in RPEs: significantly down regulated
[1]; normal or high glucose, or hypoxia, treatment for 24 hours
  Secretion of VEGF: significantly reduced

## GEEVIRNISGYGRKKRRQRRR [bII linear analog]
[2]
  Stability testing: +++

## GKLFIMNADGYGRKKRRQRRR [Linear bI (4)]
[2]
  Stability testing: ++

## GKLFIMNAGGYGRKKRRQRRR [Linear bI (6)]
[2]
  Stability testing: ++

## GKLFIMNGGYGRKKRRQRRR (GKLFIMNLSGYGRKKRRQRRR) [linear bI, a linear version of the peptide βIV5-3]
[3]
  VEGF-induced vascular permeability in comparison to vehicle alone: reduced vascular permeability

## GKLFIMNLDGYGRKKRRQRRR [Linear bI (3)]
[2]
  Stability testing: ++

## GKLFIMNLGYGRKKRRQRRR [Linear bI (5)]
[2]
  Stability testing: +++

## GKLFIMNLSGYGRKKRRQRRR (GKLFIMNAGGYGRKKRRQRRR) [bI linear analog]
[2]
  Stability testing: ++

## GQEVIRNGGYGRKKRRQRRR [linear bII]
[2]
  Stability testing: −

## GSLNPEWNETGGYGRKKRRQRRR [linear bC2-4]
[2]
  Stability testing: +++

## [^14C]-YGXaaRKKRRQRRR [Radiolabeled TAT peptide]
[4]; 5 instillations 1 hour apart, 3 mg total per eye, 15 minutes after last application
  Topical distribution, Sclera: 28.4 μ/g tissue
[4]; topical
  Choroid, applied total dose: 0.003%
  Retina, applied total dose: 0.001%
  Sclera, applied total dose: 0.134%
  Vitreous, applied total dose: 0.006%
